Source: patent US20130253173A1 (Novo Nordisk, published 2013)

T1: truncated TFPI (1-240) (human, UniProt P10646 29-268)
T1 construct: Expressed in HEK293-F cells; conditioned medium used
T1 sequence: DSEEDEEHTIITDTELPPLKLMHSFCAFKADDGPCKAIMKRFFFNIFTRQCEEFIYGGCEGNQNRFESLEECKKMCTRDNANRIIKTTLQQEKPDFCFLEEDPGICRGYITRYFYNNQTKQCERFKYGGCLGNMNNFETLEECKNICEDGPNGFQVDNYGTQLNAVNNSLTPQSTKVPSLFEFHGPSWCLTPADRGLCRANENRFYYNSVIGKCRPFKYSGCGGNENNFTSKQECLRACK

T2: truncated TFPI (1-239) (human, UniProt P10646 29-267)
T2 construct: Expressed in HEK293-F cells; conditioned medium used
T2 sequence: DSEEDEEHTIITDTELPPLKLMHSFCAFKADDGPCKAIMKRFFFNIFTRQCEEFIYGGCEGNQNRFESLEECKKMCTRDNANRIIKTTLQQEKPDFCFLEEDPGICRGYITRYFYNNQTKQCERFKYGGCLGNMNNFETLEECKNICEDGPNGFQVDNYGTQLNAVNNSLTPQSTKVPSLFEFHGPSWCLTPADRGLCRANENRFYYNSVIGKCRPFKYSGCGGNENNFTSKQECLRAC

T3: full length human TFPI (human, UniProt P10646 29-304)
T3 construct: also called wild type (wt) TFPI; TFPI Fl
T3 sequence: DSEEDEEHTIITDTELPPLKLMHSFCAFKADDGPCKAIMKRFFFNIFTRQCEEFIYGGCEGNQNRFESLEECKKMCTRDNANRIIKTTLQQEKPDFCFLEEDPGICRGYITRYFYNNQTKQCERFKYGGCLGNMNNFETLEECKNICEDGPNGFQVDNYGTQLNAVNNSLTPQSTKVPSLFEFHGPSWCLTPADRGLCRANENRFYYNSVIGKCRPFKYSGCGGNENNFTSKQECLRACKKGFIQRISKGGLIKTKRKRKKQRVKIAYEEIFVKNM

T4: Rabbit TFPI (rabbit, UniProt P19761 25-300, limits assumed)
T4 sequence (looked up): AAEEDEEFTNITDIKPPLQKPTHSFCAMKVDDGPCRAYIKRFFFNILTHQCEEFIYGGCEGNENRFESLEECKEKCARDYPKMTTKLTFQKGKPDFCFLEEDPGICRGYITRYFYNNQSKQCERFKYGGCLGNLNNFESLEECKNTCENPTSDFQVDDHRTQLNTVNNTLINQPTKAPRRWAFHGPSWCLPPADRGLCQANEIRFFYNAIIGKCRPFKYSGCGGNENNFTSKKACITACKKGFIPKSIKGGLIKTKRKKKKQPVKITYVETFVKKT

B1: MuTFPI22F66 (antibody, mouse IgG1, V domains shown)
VH: EVQLQQSGPELVKPGASMKISCKASGYSFTGYPMNWVRQSHGKNLEWIGLINPYNGDTTFNQKFKGKATLTVDKSSSTAYMELLSLTSEDSAVYYCARGTYEYVDYWGQGTTLTVSS
VL: QIVLTQSPTIMSASPGERVTMTCSASSSVFYMHWYQQKPGSSPRLLIYDTSILSSGVPVRFSGSGSGTSYSLTIRRMEAEDAATYYCQQWSSYPLTFGAGTKLELKR
notes: also called anti-TFPI22F66
B2: MuTFPI4F110 (antibody, mouse IgG1, V domains shown)
VH: QVQLQQSGAELVKPGASVKLSCKASGYTFISYYMYWVKQRPGQGLEWIGEINPSNGDTNLNEKFKSKATLTVDKSSSTVYMQLSSLTSEDSAVYYCTRWDRFDGFVYWGQGTLVTVSA
VL: ETTVTQSPASLSMAIGGKVTIRCIISTNIDDDINWYQQKPGEPPKLLISEGNTLRPGVPSRFSSSGYGTDFVFTIENMLSEDVADYYCLQSDDLPYTFGGGTKLEIKR
notes: also called anti-TFPI4F110; mAb 4F110
B3: MuTFPI22F71 (antibody, mouse IgG1, V domains shown)
VH: EVQLQQSGTVLARPGASVKMSCKASGYSFTTYWIHWVKQRPGQGLEWIGAIDPGNSDATYSQKFKDKAKLTAVTSASTAFMELNSLTNDDSAVYYCSREVYYGYDGDYFDYWGQGTTLTVSS
VL: DIVLTQSPASLAVSLGQRATISCRASESVSVHGTHLMHWYQQKPGQPPKLLIYAASKLESGVPARFSGSGSETDFTLNIHPVEEEDAATYFCQQSIGDPWTFGGGTKLEIKR
notes: also called anti-TFPI22F71

Experiments:
truncated TFPI (1-240) = molecular target: T1, truncated TFPI (1-240); experiment: binding of TFPI variants to anti-TFPI MAbs relative to TFPI-WT (=1.0); ELISA or ForteBio with HEK293-F conditioned medium, Example 7
Description: (§1) The effect of truncating the C-terminal tail of TFPI on TFPI's binding affinity to MuTFPI22F66, MuTFPI22F71, MuTFPI22F74, MuTFPI22F79 and MuTFPI22F132 was analyzed by means of ELISA, or real-time binding analysis, using the ForteBio platform. […] The ELISAs, or the real-time binding analyses, were carried out using the conditioned medium from the cell cultures.
(§2) The concentrations of wt TFPI and truncated TFPI mutants in the conditioned medium were estimated by means of an ELISA that binds TFPI K1-K2 (Goat anti-TFPI, in-house) and K2 (MAb4F36, in-house). The binding to these antibodies is not affected by the truncations. Alternatively, biotin-labelled MAb4F36 was captured on streptavidin coated BioSensor tips (ForteBio) and used for concentration estimations.
(§3) In the ELISA setting, the effect of the mutations on TFPI's ability to bind to MuTFPI22F66, MuTFPI22F71, MuTFPI22F74, MuTFPI22F79 or MuTFPI22F132 was analyzed using each of the listed MAbs as capturing antibody and using MAb4F36 for detection. Direct binding of TFPI variants to biotin-labelled MuTFPI22F66, MuTFPI22F71, MuTFPI22F74, MuTFPI22F79, and MuTFPI22F132, captured on streptavidin coated BioSensor tips (ForteBio), was measured using the ForteBio platform.

truncated TFPI (1-239) = molecular target: T2, truncated TFPI (1-239); experiment: as above
Description: as §1, §2, §3

full length human TFPI = molecular target: T3, full length human TFPI; experiment: SPR (Biacore 3000), mAb captured on immobilised anti-mouse IgG, TFPI in solution, 1:1 model
Description: (§4) Binding interaction analysis was obtained by Surface Plasmon Resonance in a Biacore 3000. Capture of the relevant monoclonal antibody at a fixed concentration was obtained with immobilised mouse anti-IgG. Different concentrations of TFPI were tested. Determination of binding constants (kₒₙ, koff, KD) was obtained assuming a 1:1 interaction of TFPI and the antibody of interest.

Rabbit TFPI = molecular target: T4, Rabbit TFPI; experiment: as above
Description: as §4

Binder	binding result (truncated TFPI (1-240))	binding result (truncated TFPI (1-239))	Kd (full length human TFPI)	Kd (Rabbit TFPI)
B1	no binding	no binding	0.6 nM	3.76 nM
B2	–	–	0.002 nM	–
B3	–	no binding	0.8 nM	0.18 nM
